Measurements taken from paper PMC6885295, “Soluble Production, Characterization, and Structural Aesthetics of an Industrially Important Thermostable β-Glucosidase from Clostridium thermocellum in Escherichia coli” (BioMed Research International, 2019).

Tested on: T1, OCc1ccccc1O[C@@H]1O[C@H](CO)[C@@H](O)[C@H](O)[C@H]1O
T1 construct: forward primer reads ATG GCA AAG ATA ACT TTC (N-terminus MAKITF, NcoI site may change residue 2)
Test: DNS reducing-sugar assay, Lineweaver-Burk plot
Type: biochemical, Acetivibrio thermocellus
Conditions: 1.5 M Tris-Cl pH 7.0, 50 °C, 30 min, substrate range 2.5-20 mM

For “BglA (Acetivibrio thermocellus ATCC 27405; S2A)”, the Km was 19.83 mM.
